Assay results: US20200308257A1 (VISTERRA, published 2020)
Where “and” joins values, the source holds several entries; their conditions need not be identical. Identical values can stand only once.

Legend:
Assay in all cases: cell-based or functional assay
[1] = molecular target: hemagglutinin (HA) of influenza A/California/04/2009 (H1N1) (influenza A virus (H1N1))
[2] = molecular target: T1, hemagglutinin (HA) of influenza A/Hong Kong/4801/2014 (H3N2) (influenza A virus (H3N2))
[3] = molecular target: T2, hemagglutinin (HA) of influenza A/Michigan/45/2015 (H1N1)pdm09 (influenza A virus (H1N1))
[4] = molecular target: hemagglutinin (HA) of influenza A/France/1302001/2018 (H1N1) (influenza A virus (H1N1))
[5] = molecular target: hemagglutinin (HA) of influenza A/Spain/2602001/2018 (H1N1) (influenza A virus (H1N1))
[6] = molecular target: hemagglutinin (HA) of influenza A/Florida/70327/2017 (H3N2) (influenza A virus (H3N2))
[7] = molecular target: hemagglutinin (HA) of influenza A/Florida/71268/2017 (H3N2) (influenza A virus (H3N2))
[8] = molecular target: hemagglutinin (HA) of influenza A/Georgia/0720003/2018 (H3N2) (influenza A virus (H3N2))
[9] = molecular target: T2, hemagglutinin (HA) of influenza …; remark: listed apart in the source
[10] = molecular target: hemagglutinin (HA) of influenza A/France/1307001/2018 (H1N1) (influenza A virus (H1N1))
[11] = molecular target: hemagglutinin (HA) of influenza A/Pennsylvania/0725006/2018 (H3N2) (influenza A virus (H3N2))
[12] = molecular target: hemagglutinin (HA) of influenza A/Florida/71210/2017 (H3N2) (influenza A virus (H3N2))
[13] = molecular target: hemagglutinin (HA) of influenza A/Belarus/1003001/2018 (H3N2) (influenza A virus (H3N2))
[14] = molecular target: hemagglutinin (HA) of influenza A/Latvia/0304001/2018 (H1N1) (influenza A virus (H1N1))
[15] = molecular target: hemagglutinin (HA) of influenza A/Serbia/0502013/2018 (H1N1) (influenza A virus (H1N1))
[16] = molecular target: hemagglutinin (HA) of influenza A/Latvia/0303005/2018 (H1N1) (influenza A virus (H1N1))
[17] = molecular target: hemagglutinin (HA) of influenza A/Florida/70609/2017 (H3N2) (influenza A virus (H3N2))
[18] = molecular target: hemagglutinin (HA) of influenza A/Georgia/0720001/2018 (H1N1) (influenza A virus (H1N1))
[19] = molecular target: hemagglutinin (HA) of influenza A/Malay sia/1701001/2018 (H1N1) (influenza A virus (H1N1))
[20] = molecular target: hemagglutinin (HA) of influenza A/Florida/70604/2017 (H3N2) (influenza A virus (H3N2))
[21] = molecular target: hemagglutinin (HA) of influenza A/Bulgaria/10101/2017 (H3N2) (influenza A virus (H3N2))
[22] = molecular target: hemagglutinin (HA) of influenza A/Thailand/2702006/2018 (H3N2) (influenza A virus (H3N2))
[23] = molecular target: hemagglutinin (HA) of influenza A/Brisbane/02/2018 (H1N1) (influenza A virus (H1N1))
[24] = molecular target: hemagglutinin (HA) of influenza A/Singapore/2401001/2018 (H3N2) (influenza A virus (H3N2))
[25] = molecular target: hemagglutinin (HA) of influenza A/Latvia/0303004/2018 (H3N2) (influenza A virus (H3N2))
[26] = molecular target: hemagglutinin (HA) of influenza A/France/1306001/2018 (H1N1) (influenza A virus (H1N1))
[27] = molecular target: hemagglutinin (HA) of influenza A/Spain/2609001/2018 (H1N1) (influenza A virus (H1N1))
[28] = molecular target: hemagglutinin (HA) of influenza A/Serbia/0502016/2018 (H1N1) (influenza A virus (H1N1))
[29] = molecular target: hemagglutinin (HA) of influenza A/Spain/2604004/2018 (H3N2) (influenza A virus (H3N2))
[30] = molecular target: T1, hemagglutinin (HA) of influenza A/Hong …; remark: listed apart in the source
[31] = molecular target: hemagglutinin (HA) of influenza A/Kansas/14/2017 (H3N2) (influenza A virus (H3N2))
[32] = molecular target: hemagglutinin (HA) of influenza A/Sydney/0903001/2018 (H3N2) (influenza A virus (H3N2))
[33] = molecular target: hemagglutinin (HA) of influenza A/Ohio/0717002/2018 (H3N2) (influenza A virus (H3N2))
[34] = molecular target: hemagglutinin (HA) of influenza A/Latvia/30314/2017 (H3N2) (influenza A virus (H3N2))
[35] = molecular target: hemagglutinin (HA) of influenza A/Florida/70702/2017 (H1N1) (influenza A virus (H1N1))
[36] = molecular target: hemagglutinin (HA) of influenza A/Bulgaria/0106011/2018 (H3N2) (influenza A virus (H3N2))
[37] = molecular target: hemagglutinin (HA) of influenza A/Florida/70303/2017 (H3N2) (influenza A virus (H3N2))
[38] = molecular target: hemagglutinin (HA) of influenza A/Latvia/30101/2017 (H3N2) (influenza A virus (H3N2))
[39] = molecular target: hemagglutinin (HA) of influenza A/Thailand/2702008/2018 (H1N1) (influenza A virus (H1N1))
[40] = molecular target: hemagglutinin (HA) of influenza A/Singapore/INFIMH-16 0019/2016 (H3N2) (influenza A virus (H3N2))
[41] = molecular target: hemagglutinin (HA) of influenza A/North Carolina/71330/2017 (H3N2) (influenza A virus (H3N2))
[42] = molecular target: hemagglutinin (HA) of influenza A/Switzerland/8060/2017 (H3N2) (influenza A virus (H3N2))
[43] = molecular target: hemagglutinin (HA) of influenza A/Pennsylvania/0725005/2018 (H3N2) (influenza A virus (H3N2))
[44] = molecular target: hemagglutinin (HA) of influenza A/Georgia/0720004/2018 (H3N2) (influenza A virus (H3N2))
[45] = molecular target: hemagglutinin (HA) of influenza A/California/7/2009 (H1N1) (influenza A virus (H1N1))

B1: VIS410 (antibody, V domains shown)
VH: QVQLLETGGGLVKPGQSLKLSCAASGFTFTSYAMHWVRQPPGKGLEWVAVVSYDGNYKYYADSVQGRFTISRDNSKNTLYLQMNSLRAEDTAVYYCAKDSRLRSLLYFEWLSQGYFNPWGQGTTLTVSS
VL: DIQMTQSPSSLSASVGDRVTITCRSSQSITFDYKNYLAWYQQKPGKAPKLLIYWGSYLESGVPSRFSGSGSGTDFTLTISSLQPEDFATYYCQQHYRTPPSFGQGTKVEIK
- EC50, virus infection of MDCK-London cells (NP ELISA microneutralization) [1]: ~0.006 µM and ~0.9 µg/ml
- EC50, NP ELISA infection assay, both assay formats [2]: 10 nM and 20 nM
- EC50, virus infection of MDCK-London cells (NP ELISA microneutralization) [2]: ~0.01 µM and ~1.5 µg/ml
- EC50 (µM) - Replicate 1, CPE assay [3]: 0.013 µM
- EC50 (µM) - Replicate 2, CPE assay [3]: 0.011 µM
- IC50, phenotypic IC50 assay (virus infection of MDCK cells) [4]: 0.86 µg/mL
- IC50, phenotypic IC50 assay (virus infection of MDCK cells) [5]: 0.42 µg/mL
- IC50, phenotypic IC50 assay (virus infection of MDCK cells) [6]: 0.67 µg/mL
- IC50, phenotypic IC50 assay (virus infection of MDCK cells) [7]: 3.14 µg/mL
- IC50, phenotypic IC50 assay (virus infection of MDCK cells) [8]: 0.49 µg/mL
- IC50, phenotypic IC50 assay (virus infection of MDCK cells) [9]: 0.89 µg/mL
- IC50, phenotypic IC50 assay (virus infection of MDCK cells) [10]: 0.86 µg/mL
- IC50, phenotypic IC50 assay (virus infection of MDCK cells) [11]: 1.5 µg/mL
- IC50, phenotypic IC50 assay (virus infection of MDCK cells) [12]: 0.97 µg/mL
- IC50, phenotypic IC50 assay (virus infection of MDCK cells) [13]: 1.26 µg/mL
- IC50, phenotypic IC50 assay (virus infection of MDCK cells) [14]: 0.57 µg/mL
- IC50, phenotypic IC50 assay (virus infection of MDCK cells) [15]: 0.67 µg/mL
- IC50, phenotypic IC50 assay (virus infection of MDCK cells) [16]: 0.87 µg/mL
- IC50, phenotypic IC50 assay (virus infection of MDCK cells) [17]: 2.41 µg/mL
- IC50, phenotypic IC50 assay (virus infection of MDCK cells) [18]: 0.71 µg/mL
- IC50, phenotypic IC50 assay (virus infection of MDCK cells) [19]: 0.4 µg/mL
- IC50, phenotypic IC50 assay (virus infection of MDCK cells) [20]: 1.23 µg/mL
- IC50, phenotypic IC50 assay (virus infection of MDCK cells) [21]: 0.22 µg/mL
- IC50, phenotypic IC50 assay (virus infection of MDCK cells) [22]: 1.13 µg/mL
- IC50, phenotypic IC50 assay (virus infection of MDCK cells) [23]: 0.55 µg/mL
- IC50, phenotypic IC50 assay (virus infection of MDCK cells) [24]: 1.17 µg/mL
- IC50, phenotypic IC50 assay (virus infection of MDCK cells) [25]: 4.47 µg/mL
- IC50, phenotypic IC50 assay (virus infection of MDCK cells) [26]: 0.91 µg/mL
- IC50, phenotypic IC50 assay (virus infection of MDCK cells) [27]: 0.43 µg/mL
- IC50, phenotypic IC50 assay (virus infection of MDCK cells) [28]: 0.37 µg/mL
- IC50, phenotypic IC50 assay (virus infection of MDCK cells) [29]: 0.92 µg/mL
- IC50, phenotypic IC50 assay (virus infection of MDCK cells) [30]: 1.65 µg/mL
- IC50, phenotypic IC50 assay (virus infection of MDCK cells) [31]: 2.65 µg/mL
- IC50, phenotypic IC50 assay (virus infection of MDCK cells) [32]: 1.49 µg/mL
- IC50, phenotypic IC50 assay (virus infection of MDCK cells) [33]: 0.81 µg/mL
- IC50, phenotypic IC50 assay (virus infection of MDCK cells) [34]: 1 µg/mL
- IC50, phenotypic IC50 assay (virus infection of MDCK cells) [35]: 0.41 µg/mL
- IC50, phenotypic IC50 assay (virus infection of MDCK cells) [36]: 1.67 µg/mL
- IC50, phenotypic IC50 assay (virus infection of MDCK cells) [37]: 0.34 µg/mL
- IC50, phenotypic IC50 assay (virus infection of MDCK cells) [38]: 0.28 µg/mL
- IC50, phenotypic IC50 assay (virus infection of MDCK cells) [39]: 0.55 µg/mL
- IC50, phenotypic IC50 assay (virus infection of MDCK cells) [40]: 1.35 µg/mL
- IC50, phenotypic IC50 assay (virus infection of MDCK cells) [41]: 0.92 µg/mL
- IC50, phenotypic IC50 assay (virus infection of MDCK cells) [42]: 1.07 µg/mL
- IC50, phenotypic IC50 assay (virus infection of MDCK cells) [43]: 2.2 µg/mL
- IC50, phenotypic IC50 assay (virus infection of MDCK cells) [44]: 0.97 µg/mL
- IC50, phenotypic IC50 assay (virus infection of MDCK cells) [45]: 0.52 µg/mL
